According to patent publication US11686724B2, “Compositions comprising gamma 9 delta 2 T-cell receptors and methods of use thereof to treat cancer” (Gadeta B.V., priority 2012, dated 2023):

B1: γ9-G115/δ2-G115: reference γ9δ2TCR of clone G115, γ9 chain SEQ ID NO.1 and δ2 chain SEQ ID NO.2, control (protein, listed as Homo sapiens)
chain 1: MVSLLHASTLAVLGALCVYGAGHLEQPQISSTKTLSKTARLECVVSGITISATSVYWYRERPGEVIQFLVSISYDGTVRKESGIPSGKFEVDRIPETSTSTLTIHNVEKQDIATYYCALWEAQQELGKKIKVFGPGTKLIITDKQLDADVSPKPTIFLPSIAETKLQKAGTYLCLLEKFFPDVIKIHWEEKKSNTILGSQEGNTMKTNDTYMKFSWLTVPEKSLDKEHRCIVRHENNKNGVDQEIIFPPIKTDVITMDPKDNCSKDANDTLLLQLTNTSAYYMYLLLLLKSVVYFAIITCCLLRRTAFCCNGEKS
chain 2: MERISSLIHLSLFWAGVMSAIELVPEHQTVPVSIGVPATLRCSMKGEAIGNYYINWYRKTQGNTMTFIYREKDIYGPGFKDNFQGDIDIAKNLAVLKILAPSERDEGSYYCACDTLGMGGEYTDKLIFGKGTRVTVEPRSQPHTKPSVFVMKNGTNVACLVKEFYPKDIRINLVSSKKITEFDPAIVISPSGKYNAVKLGKYEDSNSVTCSVQHDNKTVHSTDFEVKTDSTDHVKPKETENTKQPSKSCHKPKAIVHTEKVNMMSLTVLGLRMLFAKTVAVNFLLTAKLFFL
B2: γ9-cl3/δ2-cl3: wildtype γ9δ2TCR of T-cell clone 3 (SEQ ID 8 and 10) (protein, listed as Homo sapiens)
chain 1: MVSLLHASTLAVLGALCVYGAGHLEQPQISSTKTLSKTARLECVVSGITISATSVYWYRERPGEVIQFLVSISYDGTVRKESGIPSGKFEVDRIPETSTSTLTIHNVEKQDIATYYCALWEEELGKKIKVFGPGTKLIITDKQLDADVSPKPTIFLPSIAETKLQKAGTYLCLLEKFFPDVIKIHWEEKKSNTILGSQEGNTMKTNDTYMKFSWLTVPEKSLDKEHRCIVRHENNKNGVDQEIIFPPIKTDVITMDPKDNCSKDANDTLLLQLTNTSAYYMYLLLLLKSVVYFAIITCCLLRRTAFCCNGEKS
chain 2: MERISSLIHLSLFWAGVMSAIELVPEHQTVPVSIGVPATLRCSMKGEAIGNYYINWYRKTQGNTMTFIYREKDIYGPGFKDNFQGDIDIAKNLAVLKILAPSERDEGSYYCACDLLGYTDKLIFGKGTRVTVEPRSQPHTKPSVFVMKNGTNVACLVKEFYPKDIRINLVSSKKITEFDPAIVISPSGKYNAVKLGKYEDSNSVTCSVQHDNKTVHSTDFEVKTDSTDHVKPKETENTKQPSKSCHKPKAIVHTEKVNMMSLTVLGLRMLFAKTVAVNFLLTAKLFFL

Columns and labels:
Daudi [1] = test: IFNγ ELISA of γ9δ2TCR-transduced T-cells against Daudi in the presence of pamidronate; type: cell-based; set-up: IFNγ secretion (max.): unit not given here; details: CD4+ transduced T-cells, pamidronate titration; for IFNγ secretion (max.): FIG. 1B
Description: (§1) 51Chromium-release assay for cell-mediated cytotoxicity was previously described. Target cells were labeled overnight with 100 μCu 51Cr (150 μCu for primary cells) and incubated for 5 h with transduced T-cells in five effector-to-target ratios (E:T) between 30:1 and 0.3:1. Fold change was calculated when compared to reactivity of engineered T-cells expressing unmutated γ9δ2TCR. IFN-γ ELISpot was performed using anti-hulFN-γmAb1-D1K (I) and mAb7-B6-1 (II) (Mabtech-Hamburg, Germany) following the manufacturer's recommended procedure. Target and effector cells (E:T 3:1) were incubated for 24 h in the presence of pamidronate (Calbiochem, Germany) where indicated. IFNγ ELISA was performed using ELISA-ready-go! Kit (eBioscience) following manufacturer's instructions. Effector and target cells (E:T 1:1) were incubated for 24 h in the presence of pamidronate as indicated. Where specified, fold change was calculated when compared to reactivity of engineered T-cells expressing unmutated γ9δ2TCR.
IFN-γELISA was performed using ELISA-ready-go! Kit (eBioscience) following manufacturers' instructions. Effector and target cells (E:T 1:1) were incubated for 24 h in the presence of pamidronate as indicated. Where specified, fold change was calculated based on IFN-γ secretion γ9-G115wt/6δ-G115wt transduced T-cells normalized to 1; for the side by side experiments based on γ9-3wt/δ9-3wt, γ9-5wt/69-5wt or γ9-G115wt/δ9-G115wt normalized to 1.

[2] = Allo-reactivity of γ9δ2TCR-transduced T-cells; type: cell-based
[3] = system: healthy CD34+ progenitor cells; test: IFNγ ELISpot against healthy CD34+ progenitor cells; type: cell-based; details: FIG. 5C
Description: as §1
Mabtech (Hamburg, Germany) following manufactures' recommended procedure (Besold et al., 2007). In all assays target and effector cells (E:T 3:1) were incubated for 24 h in the presence of pamidronate (Calbiochem, Germany) where indicated. […]

Daudi-luciferase = Daudi-luciferase xenograft in Rag2−/−γc−/− mice, adoptive transfer of engineered T-cells; type: in vivo
Description: (§2) To induce tumour xenografts, sublethal total body irradiated (2 Gy), 11-17 weeks old RAG-2−/−/yc−/−-BALB/C mice were injected i.v. with 0.5×10^6 Daudi-Luc cells (a kind gift from Genmab Utrecht, The Netherlands) or 5×10^6 RPM I8226/S-Luc cells (Anton Martens, Utrecht, The Netherlands) together with 10^7 γ9δ2TCR+ transduced T-cells. The RAG−2^−/^−yc^−/−-BALB/C mice were originally obtained from AMCAS b.v. (Amsterdam, the Netherlands). Mice were bred and housed in the specific pathogen-free (SPF) breeding unit of the Central Animal Facility of the University of Utrecht. All animal experiments were conducted according to Institutional Guidelines after acquiring permission from the local Ethical Committee for Animal Experimentation, and in accordance with current Dutch laws on Animal Experimentation. All mice developed tumours, mainly growing in the bone marrow visualized in vivo once a week by Biospace bioluminescent imaging. […] Bioluminescence images were acquired using a third generation cooled GaAs intensified charge-coupled device camera, controlled by the Photo Vision software and analyzed with M^3Vision software (all from Photon Imager; Biospace Laboratory). […] Bioluminescence images were acquired and analyzed with M3Vision software (Photon Imager, Biospace Laboratory). […]

RPMI8226/S-luciferase = RPMI8226/S-luciferase xenograft in Rag2−/−γc−/− mice, adoptive transfer of engineered T-cells; type: in vivo; details: day 35, n=7, one i.v. injection of 10^7 T-cells
Description: as §2

Daudi [4] = test: 51Cr-release assay of γ9δ2TCR-transduced T-cells against Daudi; type: cell-based; details: FIG. 1A, E:T 3:1, 5 h
Description: as §1
^51Chromium-release assay for cell-mediated cytotoxicity was previously described (Kuball et al., 2004). […] After 4-6 h ^51Cr-release was measured in the supernatant. Fold change was calculated based on ^51Cr-release of γ9-G115wt/69-G115wt transduced T-cells normalized to 1; for side by side experiments based on γ9-3wt/δ9-3wt, γ9-5wt/δ9-5wt or γ9-G115wt/69-G115wt normalized to 1.

Molecule | IFNγ secretion (max.) (Daudi [1]) | IFNγ production (max.) (Daudi [1]; FIG. 1D) [pg/mL] | allo-reactivity compared to mock-transduced cells [2] | recognition of CD34+ progenitor cells [3] | tumour outgrowth by bioluminescence imaging (Daudi-luciferase; Daudi, day 42, n=4, one i.v. injection of 10^7 T-cells) [counts/min] | protection against tumour growth (BLI) (Daudi-luciferase; one T-cell infusion, FIGS. 6A and 6B (Daudi and RPMI8226/S)) | tumour outgrowth by bioluminescence imaging (RPMI8226/S-luciferase) [counts/min] | reduced ability to lyse tumour cells vs control γ9-G115wt/δ2-G115wt (Daudi [4]) [%]
B1 | 800 | 800 | nearly abolished | not recognized | 180.000 | loss of protection | 210.000 | 
B2 | 600 |  |  |  |  |  |  | 50
